Experiment [1] deals with T1, cynomolgus soluble urokinase plasminogen activator receptor (cynomolgus suPAR) (cynomolgus, UniProt Q9GK78 23-303, limits assumed).
T1 construct: also called cynomolgus uPAR; cynoPLAUR-His
Description: BLI (Octet) off-rate screen of scFv.
Target sequence in this assay (Q9GK78 23-303 limits assumed): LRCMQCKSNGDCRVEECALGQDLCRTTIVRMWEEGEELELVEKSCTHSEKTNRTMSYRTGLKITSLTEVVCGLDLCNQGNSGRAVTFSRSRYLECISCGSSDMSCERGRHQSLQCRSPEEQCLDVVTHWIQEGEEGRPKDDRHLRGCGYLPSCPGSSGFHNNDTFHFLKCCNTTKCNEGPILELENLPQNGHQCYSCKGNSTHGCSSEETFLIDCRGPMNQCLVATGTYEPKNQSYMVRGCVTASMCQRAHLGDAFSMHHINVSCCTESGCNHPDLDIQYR

Experiment [2] concerns the target T2, human soluble urokinase plasminogen activator receptor (hsuPAR) (human, UniProt Q03405 23-303, limits assumed).
T2 construct: also called human suPAR; rhuPAR-His
The experiment can be described thus: BLI (Octet) off-rate screen of scFv.
T2 sequence (Q03405 23-303 limits assumed): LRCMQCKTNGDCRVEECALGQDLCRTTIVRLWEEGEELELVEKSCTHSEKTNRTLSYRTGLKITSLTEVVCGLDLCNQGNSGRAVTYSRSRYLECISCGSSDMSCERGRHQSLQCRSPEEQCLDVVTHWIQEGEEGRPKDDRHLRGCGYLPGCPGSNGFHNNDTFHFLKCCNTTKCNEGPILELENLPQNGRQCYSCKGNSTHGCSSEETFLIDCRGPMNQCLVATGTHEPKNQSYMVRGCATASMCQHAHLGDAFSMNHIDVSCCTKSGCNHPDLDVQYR

Experiment [3] concerns the target T3, cynomolgus soluble urokinase plasminogen activator receptor (cynomolgus suPAR) (cynomolgus, UniProt Q9GK78 23-303, limits assumed).
T3 construct: also called cynomolgus uPAR; cynoPLAUR-His
The experiment can be described thus: off-rate screen of scFv clones (kdis), Octet BLI.
Target sequence in this assay (Q9GK78 23-303 limits assumed): as the sequence (Q9GK78 23-303 limits assumed) above

The target in experiment [4] is T4, human soluble urokinase plasminogen activator receptor (hsuPAR) (human, UniProt Q03405 23-303, limits assumed).
T4 construct: also called human suPAR; rhuPAR-His
Description: off-rate screen of scFv clones (kdis), Octet BLI.
T4 sequence (Q03405 23-303 limits assumed): as the sequence (Q03405 23-303 limits assumed) above

B1: suPAR_DB01_F03 (scFv, V domains shown)
VH: QVQLVQSGAEVKKPGASVKVSCKASGYTFTSYYMHWVRQAPGQGLEWMGWIDHENGNTIYDQKFQGRVTMTRDTSTSTVYMELSSLRSEDTAVYYCARGYDVDWFVYWGQGTLVTVSS
VL: DIQMTQSPSSLSASVGDRVTITCSARQSVSYMYWYQQKPGKAPKLLIYRTSNLASGVPSRFSGSGSGTDFTLTISSLQPEDFATYYCQQYHSYPPTFGGGTKVEIK
notes: Screened as scFv
Consider B1, for which the koff was determined as 6.17e-07 s⁻¹ in experiment [1] and 0.00251 s⁻¹ in experiment [2].

B2: suPAR_DB04_E05 (scFv, V domains shown)
VH: QVQLVQSGAEVKKPGASVKVSCKASGFNIKDYYIHWVRQAPGQGLEWVGWIDPHSGGTNYAQKFQGRVTMTRDTSTSTVYMELSSLRSEDTAVYYCARGYDVDWFVYWGQGTLVTVSS
VL: DIQMTQSPSSLSASVGDRVTITCSARSSVSYMYWYQQKPGKAPKLLIYRTSNLASGVPSRFSGSGSGTDFTLTISSLQPEDFATYYCQQYHSYPPTFGGGTKVEIK
notes: scFv clone from phage display
On to B2, for which the figures for the koff in experiment [3] and in experiment [4] were 3.92e-07 s⁻¹ and 0.00359 s⁻¹, respectively.

B3: suPAR_DB04_G09 (scFv, V domains shown)
VH: QVQLVQSGAEVKKPGASVKVSCKASGDTSTTYYMHWVRQAPGQGLEWMGWIDHENGNTIYDQKFQGRVTMTRDTSTSTVYMELSSLRSEDTAVYYCARGYDVDWFVYWGQGTLVTVSS
VL: DIQMTQSPSSLSASVGDRVTITCSAKSSVSYMYWYQQKPGKAPKLLIYRTSNLASGVPSRFSGSGSGTDFTLTISSLQPEDFATYYCQQYHSYPPTFGGGTKVEIK
notes: scFv clone from phage display
Consider B3, for which the koff in experiment [3] was found to be 0.000647 s⁻¹; in experiment [4], 0.00359 s⁻¹.

B4: suPAR_DB01_F05 (scFv, V domains shown)
VH: QVQLVQSGAEVKKPGASVKVSCKASGYTFSNYYMHWVRQAPGQGLEWMGWIDHEGGSTIYDQKFQGRVTMTRDTSTSTVYMELSSLRSEDTAVYYCARGYDVDWFVYWGQGTLVTVSS
VL: DIQMTQSPSSLSASVGDRVTITCSARSSVSYMYWYQQKPGKAPKLLIYRTSNLASGVPSRFSGSGSGTDFTLTISSLQPEDFATYYCQQYHSYPPTFGGGTKVEIK
notes: Screened as scFv
Consider B4, for which the results for the koff in experiment [1] and in experiment [2] were 4.95e-07 s⁻¹ and 0.00175 s⁻¹, respectively.

B5: suPAR_DB01_F02 (scFv, V domains shown)
VH: QVQLVQSGAEVKKPGASVKVSCKASGYTFTNYYVHWVRQAPGQGLEWMGWIDHENGNTIYDQKFQGRVTMTRDTSTSTVYMELSSLRSEDTAVYYCARGYDVDWFVYWGQGTLVTVSS
VL: DIQMTQSPSSLSASVGDRVTITCSARSSVSYMYWYQQKPGKAPKLLIYRTSNLASGVPSRFSGSGSGTDFTLTISSLQPEDFATYYCQQYHSYPPTFGGGTKVEIK
notes: Screened as scFv
Regarding B5, the values for the dissociation rate constant (koff) in experiment [1] and in experiment [2] were 9.84e-05 s⁻¹ and 0.004 s⁻¹, respectively.

B6: suPAR_DB04_G11 (scFv, V domains shown)
VH: QVQLVQSGAEVKKPGASVKVSCKASGFTFKDYYIHWVRQAPGQGLEWMGWIDPDSGGTNYAQKFQGRVTMTRDTSTSTVYMELSSLRSEDTAVYYCARGYDVDWFVYWGQGTLVTVSS
VL: DIQMTQSPSSLSASVGDRVTITCSARQSVSYMYWYQQKPGKAPKLLIYRTSNLASGVPSRFSGSGSGTDFTLTISSLQPEDFATYYCQQYHSYPPTFGGGTKVEIK
notes: scFv clone from phage display
B6: the figures for the off-rate constant (koff) in experiment [3] and in experiment [4] were 0.00021 s⁻¹ and 0.00327 s⁻¹, respectively.

B7: suPAR_DB04_H01 (scFv, V domains shown)
VH: QVQLVQSGAEVKKPGASVKVSCKASGYTFIGSYVHWVRQAPGQGLEWMGWIDHENGNTIYDQKFQGRVTMTRDTSTSTVYMELSSLRSEDTAVYYCARGYDVDWFVYWGQGTLVTVSS
VL: DIQMTQSPSSLSASVGDRVTITCSARSSVSYMYWYQQKPGKAPKLLIYRTSSLASGVPSRFSGSGSGTDFTLTISSLQPEDFATYYCQQYHSYPPTFGGGTKVEIK
notes: scFv clone from phage display
In the case of B7, the koff worked out at 0.00104 s⁻¹ in experiment [3] and 0.00127 s⁻¹ in experiment [4].

B8: suPAR_DB04_G06 (scFv, V domains shown)
VH: QVQLVQSGAEVKKPGASVKVSCKASGDTFTSYYVHWVRQAPGQGLEWMGWIDHENGNTIYDQKFQGRVTMTRDTSTSTVYMELSSLRSEDTAVYYCARGYDVDWFVYWGQGTLVTVSS
VL: DIQMTQSPSSLSASVGDRVTITCSASQSVSYMYWYQQKPGKAPKLLIYRTSNLASGVPSRFSGSGSGTDFTLTISSLQPEDFATYYCQQYHSYPPTFGGGTKVEIK
notes: scFv clone from phage display
B8: the koff in experiment [3] was determined as 0.000208 s⁻¹; in experiment [4], 0.0027 s⁻¹.

B9: suPAR_DB04_G07 (scFv, V domains shown)
VH: QVQLVQSGAEVKKPGASVKVSCKASGFSFTTYYMHWVRQAPGQGLEWMGWIDPENGNTIYAQKFQGRVTMTRDTSTSTVYMELSSLRSEDTAVYYCARGYDVDWFVYWGQGTLVTVSS
VL: DIQMTQSPSSLSASVGDRVTITCSARSSVSYMYWYQQKPGKAPKLLIYRTSNLASGVPSRFSGSGSGTDFTLTISSLQPEDFATYYCQQYHSYPPTFGGGTKVEIK
notes: scFv clone from phage display
Consider B9, for which the koff in experiment [3] amounted to 5.96e-07 s⁻¹; in experiment [4], 0.00424 s⁻¹.

B10: suPAR_DB04_G05 (scFv, V domains shown)
VH: QVQLVQSGAEVKKPGASVKVSCKASGYNITDYYIHWVRQAPGQGLEWMGWIDPENGSTIYDQKFQGRVTMTRDTSTSTVYMELSSLRSEDTAVYYCARGYDVDWFVYWGQGTLVTVSS
VL: DIQMTQSPSSLSASVGDRVTITCSARSSVSYMYWYQQKPGKAPKLLIYRTSNLQSGVPSRFSGSGSGTDFTLTISSLQPEDFATYYCQQYHSYPPTFGGGTKVEIK
notes: scFv clone from phage display
Regarding B10, the results for the koff in experiment [3] and in experiment [4] were 8.25e-05 s⁻¹ and 0.00364 s⁻¹, respectively.

B11: suPAR_DB04_G08 (scFv, V domains shown)
VH: QVQLVQSGAEVKKPGASVKVSCKASGHTLTGYYVHWVRQAPGQGLEWMGWIDHENGNTIYDQKFQGRVTMTRDTSTSTVYMELSSLRSEDTAVYYCARGYDVDWFVYWGQGTLVTVSS
VL: DIQMTQSPSSLSASVGDRVTITCSARSSVSYMYWYQQKPGKAPKLLIYRTSNLASGVPSRFSGSGSGTDFTLTISSLQPEDFATYYCQQYHSYPPTFGGGTKVEIK
notes: scFv clone from phage display
For the molecule B11, the values for the koff in experiment [3] and in experiment [4] were 0.000203 s⁻¹ and 0.00317 s⁻¹, respectively.

B12: suPAR_DB04_G10 (scFv, V domains shown)
VH: QVQLVQSGAEVKKPGASVKVSCKASGYTFTGYYMHWVRQAPGQGLEWMGWIDHENGNTIYDQKFQGRVTMTRDTSTSTVYMELSSLRSEDTAVYYCARGNDVDWFVYWGQGTLVTVSS
VL: DIQMTQSPSSLSASVGDRVTITCRASSSVSYMYWYQQKPGKAPKLLIYRTSNLASGVPSRFSGSGSGTDFTLTISSLQPEDFATYYCQQYHSYPPTFGGGTKVEIK
notes: scFv clone from phage display
For the molecule B12, the koff in experiment [3] turned out to be 0.000462 s⁻¹; in experiment [4], 0.00322 s⁻¹.

B13: suPAR_DB01_F04 (scFv, V domains shown)
VH: QVQLVQSGAEVKKPGASVKVSCKASGYTFTDYYMHWVRQAPGQGLEWMGWIDHSNGNTIYAQKFQGRVTMTRDTSTSTVYMELSSLRSEDTAVYYCARGYDVDWFVYWGQGTLVTVSS
VL: DIQMTQSPSSLSASVGDRVTITCSARSSVSYMYWYQQKPGKAPKLLIYRTSNLASGVPSRFSGSGSGTDFTLTISSLQPEDFATYYCQQYHSYPPTFGGGTKVEIK
notes: Screened as scFv
As to B13, the koff in experiment [1] worked out at 4.59e-05 s⁻¹; in experiment [2], 0.00309 s⁻¹.

B14: suPAR_DB04_G12 (scFv, V domains shown)
VH: QVQLVQSGAEVKKPGASVKVSCKASGYTFSDYYMHWVRQAPGQGLEWMGWIDHENGNTSYAQKFQGRVTMTRDTSTSTVYMELSSLRSEDTAVYYCARGYDVDWFVYWGQGTLVTVSS
VL: DIQMTQSPSSLSASVGDRVTITCSARSSVSYMYWYQQKPGKAPKLLIYRTSNLASGVPSRFSGSGSGTDFTLTISSLQPEDFATYYCQQYHSYPPTFGGGTKVEIK
notes: scFv clone from phage display
On to B14, for which the figures for the koff in experiment [3] and in experiment [4] were 8.1e-05 s⁻¹ and 0.00528 s⁻¹, respectively.
